Source: patent US6368863, “Reagents and methods for modulating gene expression through RNA mimicry” (ISIS Pharmaceuticals Inc.)

Assays:
Details in all cases: protein: synthetic; tags: synthetic 39-mer peptide made by solid phase synthesis, UCSF Biotechnology Resource Core; label: 5'-32P; hairpin with bulge
[1] = molecular target: T1, Tat39 (Tat3B; HIV Tat residues 48-86) (HIV-1, UniProt P04608 P04608:48-86); test: EMSA; 5 pM oligo; 1:1 Kd; Krel 4
T1 chain: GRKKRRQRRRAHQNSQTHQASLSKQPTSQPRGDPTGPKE

[2] = molecular target: T1, Tat39 (Tat3B; HIV Tat residues 48-86); test: EMSA; 50 pM oligo; 1:1 Kd; 2-3:1 Kd 8000-20000 nM; Krel 10
[3] = molecular target: T1, Tat39 (Tat3B; HIV Tat residues 48-86); test: EMSA; 1:1 Kd; 2-3:1 Kd 200 nM; 10 mM Tris pH 7.5, 70 mM NaCl, 4 C
[4] = molecular target: T1, Tat39 (Tat3B; HIV Tat residues 48-86); test: EMSA; 1:1 Kd; Krel 1
[5] = molecular target: T1, Tat39 (Tat3B; HIV Tat residues 48-86); test: EMSA; 1:1 Kd; 2-3:1 Kd 30 nM; Krel 4

## GCCAGAUCUGAGCCUGGGAGCUCUCUGGC (XNA, 2'-OMe, PS) [2'-OMe, P=S delta-TAR #2195 29-mer (16-45(-A17))]
[1]
  Kd: < 10 nM
[2]
  Kd: 4 nM

B1: TAR 59-mer (1-59) (ssRNA)
RNA: GGGUCUCUCUGGUUAGACCAGAUCUGAGCCUGGGAGCUCUCUGGCUAACUAGGGAACCC
[3]
  Kd: 40 nM

B2: 5-BrU TAR 59-mer (1-59) (ssRNA)
RNA: GGGUCUCUCUGGUUAGACCAGAUCUGAGCCUGGGAGCUCUCUGGCUAACUAGGGAACCC
modifications: 5-bromouridine in place of U
[4]
  Kd: 40 nM

B3: A:P=S TAR 59-mer (1-59) (ssRNA)
RNA: GGGUCUCUCUGGUUAGACCAGAUCUGAGCCUGGGAGCUCUCUGGCUAACUAGGGAACCC
modifications: PS linkages at A residues
[5]
  Kd: < 10 nM
